Assay results: PMC4303294 (Biochemistry, 2014)

Target: the molecule itself
Assay: SEC

B1: nitrophorin 4 (NP4) reconstituted with the symmetrical hemin, 2,4-dimethyldeuterohemin (natural protein, Rhodnius prolixus, UniProt Q94734 22-205, looked up)
chain: ACTKNAIAQTGFNKDKYFNGDVWYVTDYLDLEPDDVPKRYCAALAAGTASGKLKEALYHYDPKTQDTFYDVSELQVESLGKYTANFKKVDKNGNVKVAVTAGNYYTFTVMYADDSSALIHTCLHKGNKDLGDLYAVLNRNKDAAAGDKVKSAVSAATLEFSKFISTKENNCAYDNDSLKSLLTK
In the case of B1, the “stoichiometry N” value is reported as 2.
